Assay results: patent publication US9688764B2, “Methods of treating breast cancer by administering anti-human prolactin receptor (PRLR) antibodies” (REGENERON PHARMACEUTICALS, INC., priority 2013, dated 2017)

B1: VV6A9-5: exemplary anti-IL-6R antibody, see U.S. Pat. No. 7,582,298 (antibody, V domains shown)
VH: EVQLVESGGGLVQPGRSLRLSCAASGFTFDDYALHWVRQAPGKGLEWVSGVSWNGGRIGYADSVKGRFTISRDNAKNSLFLQMNSLRVEDTALYYCAKGRDAFDIWGQGTLVTVSS
VL: DIQMTQSPSSVSASVGDRVTITCRASQGISSWLAWYQQKPGKAPKLLIYAASSLQSGVPSRFSGSGSGTDFTLTISSLQPEDFATYYCQHAYSFPYTFGQGTKLEIK
B2: H1H6765P-DM1: anti-PRLR antibody H1H6765P conjugated to DM1 through an SMCC linker (conjugate)
VH: EVQLVESGGGVVRPGGSLRLSCVGSGFSFDDHGMNWVRQGPGKGLEWVSGFNWNGGSTNYAESVKGRFTISRDNARNSLFLQMNSLRAEDTALYYCVRGRSGWFNDAFDVWGPGTMVTVSS
VL: EIVLTQSPGTLSLSPGERATLSCRASQTINSNYLAWYRQKPGQTPRLLIYGTSSRATGIPDRFSGSGSGTDFSLTISRLEPEDFAVFYCQQYAGLPTFGPGTKVDIK

Columns and labels:
[1] = target: T1, IL-6R on KG-1, HEK293, HEK293/IL-4R and Ramos cells (Homo sapiens, UniProt P08887); assay: FACS relative cell surface expression with anti-IL-6R antibody VV6A9-5; format: binding
T1 construct: KG-1 (IL-4R^+), HEK293/IL-4R and Ramos (IL-6R^+) cells; endogenous in cells; host or cells: Ramos (IL-6R+), KG-1, HEK293, HEK293/IL-4R
T1 sequence (P08887 20-468): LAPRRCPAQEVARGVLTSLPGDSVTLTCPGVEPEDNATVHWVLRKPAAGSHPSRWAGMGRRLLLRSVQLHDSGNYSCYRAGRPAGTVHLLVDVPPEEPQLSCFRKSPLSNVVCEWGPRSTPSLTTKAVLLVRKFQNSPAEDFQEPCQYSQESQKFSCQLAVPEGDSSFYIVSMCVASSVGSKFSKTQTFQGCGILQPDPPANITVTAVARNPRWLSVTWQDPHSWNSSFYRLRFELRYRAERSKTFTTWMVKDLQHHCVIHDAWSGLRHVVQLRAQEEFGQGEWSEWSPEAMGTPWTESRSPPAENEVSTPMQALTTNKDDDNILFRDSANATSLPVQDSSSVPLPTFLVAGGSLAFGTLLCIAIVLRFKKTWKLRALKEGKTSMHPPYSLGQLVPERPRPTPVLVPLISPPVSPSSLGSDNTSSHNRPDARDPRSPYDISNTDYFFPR
Method: Cell surface antigen levels on cells that endogenously or recombinantly express IL-4R or IL-6R were first established using FACS. Briefly, approximately 1 million KG-1 (IL-4R^+), HEK293/IL-4R and Ramos (IL-6R^+) cells were incubated with exemplary anti-IL-4R (H4H083P2, see U.S. Pat. No. 7,608,693) and anti-IL-6R (VV6A9-5, see U.S. Pat. No. 7,582,298) antibodies for 30 min on ice. After washing, a PE-conjugated anti-human secondary antibody (10 μg/ml) was added for 30 min followed by a second washing step and subsequent analysis on an Accuri C6 cytometer using FlowJo software (Tree Star, Inc., Ashland, Oreg.). Relative IL-4R and IL-6R cell surface expression levels were calculated as the mean fluorescence intensity (MFI) above isotype control levels.

[2] = test system: T47D#11 tumors; assay: Tumor growth inhibition in xenograft-bearing mice; format: in vivo, CB17 SCID mice
Excerpt: (§1) Briefly, 20×10^6 MCF7/PRLR cells (ATCC HTB-22 transfected with full length hPRLR as previously described) were implanted subcutaneously into the left mammary fat pad of female NCr nude mice. In other studies, 10×10^6 PC3/PRLR (ATCC CRL-1435 transfected with full length hPRLR as previously described) were implanted subcutaneously into the left flank of male SCID mice. Additionally, 10×10^6 parental T47D (ATCC HTB-133) or […] T47D#11 cells (ATCC HTB-133 serially passaged in vivo as described below) were subcutaneously implanted into the left flank of female CB17 SCID mice. All mice were obtained from Taconic (Hudson, N.Y.). Each bolus of cells was supplemented with a 90-day estrogen release pellet (1.7 mg/pellet; Innovative Research America, Sarasota Fla.). Once tumors had reached an average volume of 250 mm^3, mice were randomized into groups of seven and dosed with anti-PRLR antibody-drug conjugates of the invention or control reagents. Control reagents included PBS vehicle, free methyl-disulfide DM1 (DM1-SMe) and isotype Control 1-DM1.
(§2) In multi-dose studies, mice were dosed once a week for a total of three weeks with tumor volumes and body weights being monitored twice weekly throughout the study. Test ADCs were dosed at 5 and/or 15 mg/kg in the multi-dose studies. In single-dose studies, mice received a single dose of test ADC, and tumor volumes and body weights were monitored twice weekly throughout the study. Test ADCs were dosed at 1, 2.5, 5, and 15 mg/kg in the single-dose studies. Average tumor size as well as tumor growth inhibition relative to the vehicle treated group were calculated for each group. Tumors were measured with calipers twice a week until the average size of the vehicle group reached 1000 mm^3. Tumor size was calculated using the formula (length×width^2)/2. Tumor growth inhibition was calculated according to the following formula: (1−((Tfinal−Tinitial)/(Cfinal−Cinitial)))*100, where T (treated group) and C (control group) represent the mean tumor mass on the day the vehicle group reached 1000 mm^3. […] Results are summarized in Tables 21-25 (multi-dose) and Table 26 (single dose). (NT=not tested in the particular experiment shown).

[3] = test system: HEK293 (293) cells; assay: Cell viability (cell kill) assay; format: cell-based; settings: 293; Table 11; 3 days
Procedure, shortened: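 Anti-PRLR–DM1 ADCs (non-cleavable SMCC linker) or free DM1-SMe, 500 nM to 5 pM for 3 days on parental or hPRLR-overexpressing lines. HEK293: CCK8 OD450; MCF7: Hoechst nuclear counts by imaging.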

[4] = test system: T47D cells; assay: Cell viability (cell kill) assay; format: cell-based; settings: T47D, Table 12, 3 days
Procedure, shortened: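 T47D cells grown overnight, then exposed 3 days to anti-PRLR ADCs (DM1 via non-cleavable SMCC linker, or other maytansinoid toxins) or free DM1-SMe, 500 nM to 5 pM. Viability by CCK8 OD450, digitonin background subtracted, as % of untreated; IC50 from 10-point four-parameter fit. PRL (15 nM) co-incubation tested separately.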

[5] = test system: MCF7 (MCF7/ATCC) cells; assay: Cell viability (cell kill) assay, nuclear counts; format: cell-based; settings: MCF7; Table 12; 3 days
Procedure, shortened: (§3)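 Anti-PRLR ADCs or free DM1-SMe were added at 500 nM to 5 pM final to cells seeded overnight and were incubated 3 days. MCF7 lines were fixed with 4% formaldehyde plus Hoechst 33342, and nuclei were counted by imaging, with digitonin […] background subtracted. Viability was expressed as % of untreated cells, and IC50 was obtained from a 4-parameter fit of a 10-point curve.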

[6] = test system: PC3/hPRLR cells; assay: Cell viability (cell kill) assay; format: cell-based, human; settings: PC3/PRLR; Table 11; 3 days
Procedure, shortened: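 PC3 and PC3/hPRLR (lipofection-generated, FACS-enriched for PRLR) cells exposed 3 days to anti-PRLR ADCs or free DM1-SMe, 500 nM to 5 pM. Viability by CCK8 OD450, digitonin background subtracted, as % of untreated; IC50 from four-parameter fit of 10-point curves.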

[7] = test system: MCF7/hPRLR (MCF7/PRLR) cells; assay: Cell viability (cell kill) assay, nuclear counts; format: cell-based, human; settings: Table 12, 3 days
Procedure, shortened: as §3

[8] = test system: PC3/PRLR tumors; assay: Tumor growth inhibition in xenograft-bearing mice; format: in vivo, SCID mice; settings: PC3/PRLR tumors TRIAL #2; multi-dose 5 mg/kg; SCID mice; Day 55
Excerpt: as §1, §2

[9] = test system: MCF7/PRLR tumors; assay: Tumor growth inhibition in xenograft-bearing mice; format: in vivo, NCr nude mice; settings: MCF7/PRLR tumors TRIAL #2; multi-dose 5 mg/kg; NCr Nude mice; Day 63
Excerpt: as §1, §2

[10] = Conjugate characterization: protein and linker/payload concentrations, payload loading (UV, MALDI-TOF, SEC-HPLC, RP-HPLC); format: physicochemical; settings: Anti-PRLR-SMCC-DM1 conjugates; Table 9
Excerpt: Selected anti-PRLR antibodies were conjugated to the maytansinoid DM1 through an SMCC linker using methods similar to those set forth in U.S. Pat. No. 5,208,020 and US Patent Application Publication No. 2010/0129314, the disclosures of which are incorporated by reference herein in their entireties. The conjugates were purified by size exclusion chromatography and sterile filtered. All starting materials and solvents were purchased commercially and used without purification, unless otherwise noted.
Protein and linker/payload concentrations were determined by UV spectral analysis and MALDI-TOF mass spectrometry. Size-exclusion HPLC established that all conjugates used were >95% monomeric, and RP-HPLC established that there was <0.5% unconjugated linker payload. Yields are reported in Table 8 and 9 based on protein. All conjugated antibodies were analyzed by UV for linker payload loading values according to Hamblett et al, 2004, Clinical Cancer Research 10(20):7063-7070, and by mass difference, native versus conjugated.

[11] = test system: PC3 cells; assay: Cell viability (cell kill) assay; format: cell-based; settings: Table 11, 3 days
Excerpt: PRLR-overexpressing cells, including HEK293, PC3, MCF7 and NCI-N87, were generated to assess the ability of anti-PRLR conjugated antibodies to reduce cell viability. For comparative purposes, PC3 and T47D cells with overexpressed ErbB2 were also generated, as well as an MCF7 cell line over-expressing both hPRLR and hErbB2. Briefly, Lipofectamine® 2000-mediated transfection methodology was utilized to generate HEK293 cells expressing human PRLR (HEK293/hPRLR) or human ErbB2 (HEK293/hErbB2). Lipofectamine LTX with Plus Reagent was used to generate PC3 cells expressing human PRLR (PC3/hPRLR) or human ErbB2 (PC3/hErbB2). Lentiviral-mediated transduction was utilized to generate MCF7 cells expressing human PRLR (MCF7/hPRLR), NCI-N87 cells expressing human PRLR (NCI-N87/hPRLR), T47D cells over-expressing human ErbB2 (T47D/hErbB2), and MCF7 cells expressing both human PRLR and human ErbB2 (MCF7/hPRLR/hErbB2). All lines were selected for at least two weeks in complete growth media plus appropriate selection reagents. Stably expressing populations were enriched for PRLR expression via FACS using the anti PRLR antibody Control I.
Next, the ability of anti-PRLR-DM1 antibody-drug conjugates (i.e., anti-PRLR antibodies conjugated to DM1 via a non-cleavable linker [SMCC]) to reduce cell viability was determined using in vitro cell based assays. Cells were seeded in PDL-coated 96 well plates at 1500 to 10000 cells per well in complete growth media and allowed to grow overnight. For cell viability curves, ADCs or free DM1 (as the methyl disulfide derivative DM1-SMe) were added to the cells at final concentrations ranging from 500 nM to 5 pM and incubated for 3 days. The 293, PC3 and T47D cells were incubated with CCK8 (Dojindo, Rockville, Md.) for the final 1-3 hours and the absorbance at 450 nm (OD450) was determined on a Flexstation3 (Molecular Devices, Sunnyvale, Calif.). MCF7 cells were treated with Hoechst 33342 nuclear stain while being fixed with 4% formaldehyde. Images were acquired on the ImageXpress micro XL (Molecular Devices, Sunnyvale, Calif.) and nuclear counts were determined via Columbus image analysis software (Perkin Elmer, Shelton, Conn.). Background OD450 values (PC3, 293, and T47D) or nuclear counts (MCF7) from digitonin (40 nM) treated cells was subtracted from all wells and viability was expressed as a percentage of the untreated controls. IC50 values were determined from a four-parameter logistic equation over a 10-point response curve (GraphPad Prism).
Finally, the potency of anti-PRLR antibodies conjugated to DM1 via the non-cleavable linker SMCC was compared to the cell killing potency of anti-PRLR antibodies conjugated to MMAE via the cleavable linker: mc-vc-PAB (available from Concortis, San Diego, Calif.). Cells used in this experiment were PC3, PC3/hPRLR, MCF7/ATCC and MCF7/PRLR.

| Molecule | IL-6R Cell Line Expression Level; Fold Over Background ([1]; HEK293) | IL-6R Cell Line Expression Level; Fold Over Background ([1]; HEK293/IL4R) | IL-6R Cell Line Expression Level; Fold Over Background ([1]; KG-1) | IL-6R Cell Line Expression Level; Fold Over Background ([1]; Ramos) | Average Tumor Growth Inhibition (%) ([2]; T47D#11 tumors, multi-dose 5 mg/kg, SCID mice, Day 66) | effect on T47D#11 tumor growth ([2]; multi-dose, 5 and 15 mg/kg) | % Kill [3] [%] | IC50 [3] [nM] | % Kill [4] [%] | IC50 ([4]; read-out: IC50) [nM] | % Kill [5] [%] | IC50 [5] [nM] | % Kill [6] [%] | IC50 [6] [nM] | % Kill [7] [%] | IC50 [7] [nM] | Average Tumor Growth Inhibition (%) [8] [%] | Final Tumor size mm^3 (mean ± SEM) [9] [mm^3] | Payload:Antibody Molar Ratio (MS) [10] | % Kill [11] [%] |
| --- | --- | --- | --- | --- | --- | --- | --- | --- | --- | --- | --- | --- | --- | --- | --- | --- | --- | --- | --- | --- |
| B1 | 1 | 1 | 7 | 1 |  |  |  |  |  |  |  |  |  |  |  |  |  |  |  |  |
| B2 |  |  |  |  | 100 | potently inhibited tumor growth | 86 | 100 | 78 | 1.63 | 68 | 150 | 70 | 0.57 | 84 | 0.18 | 70 | 90 ± 56 | 2.3 | 70 |
